Test results reported in the nanobody polyreactivity screen of Harvey et al. (2022).

Experiment: yeast display, Sf9 membrane polyspecificity reagent, FACS + sequencing; frameworks hold sequencing errors
Method in brief: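 Genes from sorted yeast were amplified by colony PCR, read by MiSeq 2 × 250 sequencing and filtered on CDR length. These cells carried a synthetic nanobody library in Saccharomyces cerevisiae BJ5465 and were sorted by FACS into low and high (top ~1%) gates on anti-HA and streptavidin fluorescence. Polyreactivity is labelled according to the gate of origin.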

| Sequence | polyreactivity (PSR sort gate) |
| --- | --- |
| QVQLVESGGGLVQAGGSLRLSCAASGSTFTLYVMGWYRQAPGKERELVAAITSSGDSTDYADSVKGRFTISRDNAKNTVYLQMNSLKPEDTAVYYCNVQPVYADHFTEFDYWGQGTQVTVSS | low polyreactivity |
| QVQLVESGGGLVQAGGSLRLSCAASGSTFTNNGMGWYRQAPGKERELVATISWDGDSTYYADSVKGRFTISRDNAKNSVYLQMNSLKPEDTAVYDCAADYRLHYSYPYEVVQYEYWGQGTQVTVSS | low polyreactivity |
| QVQLVESGGGLVQAGGSLRLSCAASGSTFTPNAMGSYRQAPGKERELDASISTTGGNTYYADSVKGRFTISRDNAKNTVYLQMNSLKPEDTAVYYCNAVRSVYLYGYIYGVDYWGQGTQVTVSS | low polyreactivity |
| QVQLVESGGGLVQAGGSLRLSCAASGSTFTPYAMGWYRQAPGKERELVAAISSTGGITYYADSVKGRFTISRDNAKNTVYLQMNSLKPEDTAVYYCAADAYYYGYEYWGQGTQVTVSS | high polyreactivity |
| QVQLVESGGGLVQAGGSLRLSCAASGSTFTPYAMGWYRQAPGKERELVAGITGNGGSTRYADSVKGRFTISRDNAKNTVYLQMNSLKTEDTAVYYCAARWTRERYRTSYYSWGQGTQVTVSS | high polyreactivity |
| QVQLVESGGGLVQAGGSLRLSCAASGSTFTPYVMGWYRQAPGKERELVASITGGGGSTYADSVKGRFTISRDNAKNTVYLQMNSLKPEDTAVYYCGARVWRSYNYWGQGTQVTVSS | high polyreactivity |
| QVQLVESGGGLVQAGGSLRLSCAASGSTFTPYVMGWYRQAPGKEREVVAAISNVGRTYYADSVKGRFTISRDNAKNTVYLQMNSLKPEDTAVYYCAVRRDKNYYDWGQGTQVTVSS | high polyreactivity |
| QVQLVESGGGLVQAGGSLRLSCAASGSTFTRNAMGWYRQAPGKERELVATISSGGSTNYADSVKGRFTISRDNAKNTVYLQMNSLKPEDTAVYYCDKRSLYRYYYWGQGTQVTVSS | high polyreactivity |
| QVQLVESGGGLVQAGGSLRLSCAASGSTFTRNAMGWYRQAPGKEWELVAAITSSGGSTYYAASVKGRFTISRDNAKNTVYLQMNSLKPEDNAVYYCAAYPHRPRDPELDHWGQGTQVTVSS | low polyreactivity |
| QVQLVESGGGLVQAGGSLRLSCAASGSTFTRNTMGWYKQAPGKERELVAAISRRGGRTDYADSVKGRFTISRDNAKNTVYLQMNSLKPEDTAVYYCAADPITVDQNPRYGYWGQGTQVTVSS | high polyreactivity |
| QVQLVESGGGLVQAGGSLRLSCAASGSTFTRNTMGWYRQAPGKERELVAVISRRGGSTYYADSVKGRFTISRDNAKNTVYLQMNSLKPEDTAVYYCNTAAYRLQYEYWGQGTQVTVSS | high polyreactivity |
| QVQLVESGGGLVQAGGSLRLSCAASGSTFTRYAMGSYRQAPGKERELVAAISRTGGSRTYYADSVKGRFTISRDNAKNTVYLQMNSLNPEDTAVYYCAKGYWRYLGFLYFFPARDYWGQGTQVTVSS | high polyreactivity |
| QVQLVESGGGLVQAGGSLRLSCAASGSTFTRYAMGWYRQAPGKEREFVAAINWSGTSTYYADSVKGRFTISRDTAKNTVYLQMNSLKPEDTAVYYCNAYTVRSYRFDYWGQGTQVTVSS | high polyreactivity |
| QVQLVESGGGLVQAGGSLRLSCAASGSTFTSNVMGWYRQAPGKERELVAAISQSGGRTYYADSVKGRFTISRDNAKNTVYLQMNSLKPEDTAVYYCAASYVHYHMDYWGQGTQVTVSS | high polyreactivity |
| QVQLVESGGGLVQAGGSLRLSCAASGSTFTSNVMGWYRQAPGKERELVAAISTNGGRTYYADSVKGRFTISRDNAKNTVYLQMNSLKPEDTAVYYCAASLPRPGIGGRDYWGQGTQVTVSS | low polyreactivity |
| QVQLVESGGGLVQAGGSLRLSCAASGSTFTSYVMGWYRQAPGKEREFVAAITSSGGDTYYADSVKGRFTISRDNAKNTVYVQMNSLKPEDTEVYYCATRSYYRSSYYRNRYPYDYWGQGTLVTVSS | low polyreactivity |

| Sequence | polyreactivity (PSR sort gate) |
| --- | --- |
| QVQLVESGGGLVQAGGSLRLSCAASGSTFTTNAMGWSRQAPGNERELVATISGGGSTYYADSVKGRFTISRDNAKNTVYLQMNSLKPEDTAVYDCATDVQVPGIGRSVYAYEYWGQGTQVTVSS | low polyreactivity |
| QVQLVESGGGLVQAGGSLRLSCAASGSTFTTNAMGWYRQAPGKERELVASITWSGGGTNYADSVKGRFTISRDNAKNSVFLQMNSLKPEDTAVYSCADDYDDSHLRSDYWGQGTQVTVSS | low polyreactivity |
| QVQLVESGGGLVQAGGSLRLSCAASGSTFTTYAMGWYRQAPGKERELVAAISNNGGRTFYADSVKGRFTISRDNAKNTVYLQMNSLKPEDTAVYYCAAEYGLYAPGYYYWGQGTQVTVSS | low polyreactivity |
| QVQLVESGGGLVQAGGSLRLSCAASGSTFTTYAMGWYRQAPGKERELVAAISYGGGSTYYADSVKGRFTISRDNAKNTVYLQMNSLKPEDTAVYFCAAVAWASDGYDSWGQGTQVTVSS | low polyreactivity |
| QVQLVESGGGLVQAGGSLRLSCAASGSTFTTYAMGWYRQATGKERELVASITWRGGSTYADSVKGRFTISRDNAKNTVYLEMNSLKPEDTAVYYCAAATRASAQFPRQRYYYWGQGTQVTVSS | high polyreactivity |
| QVQLVESGGGLVQAGGSLRLSCAASGSTFTTYDMGWYRQAPGKERELVAGITGSGTSTFYADSVKGRFTISRDNAKNTVYLQMKSLKPEDTAVYYCATDWYTPEEYVTGAIEEYYWGQGTLVTVSS | low polyreactivity |
| QVQLVESGGGLVQAGGSLRLSCAASGSTFTVYAMGWYRQAPGKERELVAAITVSTDSTYYADSVKGRFTISRDNAKNTVYLQMNSLKPEDTAVYYCAADSARSGYGRYDSWGQGTQVTVSS | low polyreactivity |
| QVQLVESGGGLVQAGGSLRLSCAASGSTFTWNGMGWYRQAPGKERELVATISYGGGRTYYADSVKGRFTISRDNAKNTVYLQMNSLKPEDTAVYYCAADFTRYTQVHALRLSEYWGQGTQVTVSS | low polyreactivity |
| QVQLVESGGGLVQAGGSLRLSCAASGSTFTWYAMGWYRQAPGKERELVAAIRWSGGNTYYADSVKGRFTISRDTAKNTVYLHMNSLKPEDTGVYYCAAVSRTYSLQMYYWGQGTQVTVSS | high polyreactivity |
| QVQLVESGGGLVQAGGSLRLSCAASGSTFTYNAMGWYRHAPGKERELVASISSGTTTYYADSVKGRFTISRDNAKNTVYLQLNSLKPEDTAVYFCAVDSWSRVQGWLAHNYDYWGQGTQVTVSS | low polyreactivity |
| QVQLVESGGGLVQAGGSLRLSCAASGSTFTYNAMGWYRQAPGKVRELVASISSGTTTYYADSVKGRFTISRDNAKNTVYLQMNSLTPEDTAVYYCAVDSWSRVQGWLAHNYDYWGQGTQVTVSS | low polyreactivity |
| QVQLVESGGGLVQAGGSLRLSCAASGSTFTYNDMGWYRQAPGKERELVARITFSSGRTYYADSVKGRFTISRDNAKNTVYLQMNSLKPEDTAVYYCARQWYWRPGYYIGQGYEYWGQGTQVTVSS | low polyreactivity |
| QVQLVESGGGLVQAGGSLRLSCAASGSTFTYYAMGWYRQAPGKERELVAAIDFSGTSTYYADSVKGRFTISRDNAKNTVYLQMNRLKPEDTAVYYCAASQSWYWGGAHDNGEFGYWGQGTQVTVSS | low polyreactivity |
| QVQLVESGGGLVQAGGSLRLSCAASGSTFTYYAMGWYRQAPGKERELVAAISRGGRTNYADSVKGRFTISRDNAKNTVYLQMNSLKPEDTAVYFCAAVVFRTGIWFDYWGQGTQVTVSS | high polyreactivity |
| QVQLVESGGGLVQAGGSLRLSCAASGSTFTYYAMGWYRQAPGKERELVAAITSGGSTNYADSVKGRFTISRDNAKNTVYLQMNSLKPEDTAVYYCAAEYVRQNYEMDYWGQGTQVTVSS | low polyreactivity |
